Assay results as given in PMC3622243.

Legend:
[1] = molecular target: HLA-B27 homodimer (B27 H chain dimer, β2m-free) (human); assay: SPR
[2] = molecular target: LILRB2 on transduced Baf3 cells (UniProt Q8N423); assay: flow cytometry on cells

Row | Substance | Kd [1] | percent reduction of bound B27 Flu NP heterotrimer tetramer over 1 hour [2]
1 | LILRB2 incorporating the two immunoglobulin-like domains D1 and D2 (domain or fragment) | 2500 nM | 
2 | HLA-B27 homodimer (B27 H chain dimer, β2m-free) (complex) |  | 43%
